Results on 91 variants are retold here after IntAct's records for PubMed 29039417.

B1: Protein PTHB1 (Homo sapiens), Q3SYG4 (parent)
chain: MSLFKARDWWSTILGDKEEFDQGCLCLANVDNSGNGQDKIIVGSFMGYLRIFSPHPAKTGDGAQAEDLLLEVDLRDPVLQVEVGKFVSGTEMLHLAVLHSRKLCVYSVSGTLGNVEHGNQCQMKLMYEHNLQRTACNMTYGSFGGVKGRDLICIQSMDGMLMVFEQESYAFGRFLPGFLLPGPLAYSSRTDSFLTVSSCQQVESYKYQVLAFATDADKRQETEQQKLGSGKRLVVDWTLNIGEQALDICIVSFNQSASSVFVLGERNFFCLKDNGQIRFMKKLDWSPSCFLPYCSVSEGTINTLIGNHNNMLHIYQDVTLKWATQLPHIPVAVRVGCLHDLKGVIVTLSDDGHLQCSYLGTDPSLFQAPNVQSRELNYDELDVEMKELQKIIKDVNKSQGVWPMTEREDDLNVSVVVSPNFDSVSQATDVEVGTDLVPSVTVKVTLQNRVILQKAKLSVYVQPPLELTCDQFTFEFMTPDLTRTVSFSVYLKRSYTPSELEGNAVVSYSRPTDRNPDGIPRVIQCKFRLPLKLICLPGQPSKTASHKITIDTNKSPVSLLSLFPGFASQSDDDQVNVMGFHFLGGARITVLASKTSQRYRIQSEQFEDLWLITNELILRLQEYFEKQGVKDFACSFSGSIPLQEYFELIDHHFELRINGEKLEELLSERAVQFRAIQRRLLARFKDKTPAPLQHLDTLLDGTYKQVIALADAVEENQGNLFQSFTRLKSATHLVILLIALWQKLSADQVAILEAAFLPLQEDTQELGWEETVDAAISHLLKTCLSKSSKEQALNLNSQLNIPKDTSQLKKHITLLCDRLSKGGRLCLSTDAAAPQTMVMPGGCTTIPESDLEERSVEQDSTELFTNHRHLTAETPRPEVSPLQGVSE
partner: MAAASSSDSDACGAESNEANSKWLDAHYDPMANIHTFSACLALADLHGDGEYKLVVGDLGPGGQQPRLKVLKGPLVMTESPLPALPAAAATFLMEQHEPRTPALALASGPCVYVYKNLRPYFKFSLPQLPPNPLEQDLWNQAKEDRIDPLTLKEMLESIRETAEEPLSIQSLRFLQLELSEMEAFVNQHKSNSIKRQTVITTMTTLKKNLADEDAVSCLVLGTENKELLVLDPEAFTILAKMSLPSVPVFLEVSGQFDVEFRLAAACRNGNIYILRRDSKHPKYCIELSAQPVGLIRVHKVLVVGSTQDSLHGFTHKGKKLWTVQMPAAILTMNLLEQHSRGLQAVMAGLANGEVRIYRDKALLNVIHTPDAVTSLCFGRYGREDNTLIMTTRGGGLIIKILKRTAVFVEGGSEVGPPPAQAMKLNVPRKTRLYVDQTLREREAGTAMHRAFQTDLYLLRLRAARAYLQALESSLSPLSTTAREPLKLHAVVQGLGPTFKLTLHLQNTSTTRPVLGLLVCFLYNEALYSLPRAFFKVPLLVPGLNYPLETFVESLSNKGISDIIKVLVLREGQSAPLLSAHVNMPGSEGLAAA

The variants in the experiment derive from B1. The note with it: with bbs1_human BBS1, Q8NFJ9.
On to V856E, for which the “effect of a mutation on the interaction” value was “with no effect”. Turning to V856K, the “effect of a mutation on the interaction” value was “with no effect”. Next, V856A: “with no effect”; Q835E: “with no effect”. For the variant Q835K, the “effect of a mutation on the interaction” value is “with no effect”. For the variant Q835A, the “effect of a mutation on the interaction” value is “with no effect”. Next, D859K: “with no effect”. Next, D859A: “with no effect”.

For the variant D859E, the “effect of a mutation on the interaction” value was “with no effect”. Under R854K stands “with no effect”; under R854E, “with no effect”. With R854A, the “effect of a mutation on the interaction” value is on record as “with no effect”. Under E862A stands “with no effect”; under E862K, “with no effect”. S849A: the “effect of a mutation on the interaction” value is reported as “with no effect”.

Regarding S849K, the “effect of a mutation on the interaction” value was “with no effect”. Consider S849E, for which the “effect of a mutation on the interaction” value is “with no effect”. As for T844E, the “effect of a mutation on the interaction” value is recorded as “with no effect”. Under T844A stands “with no effect”; under T844K, “with no effect”; under F864A, “with no effect”.

As to L851E, the “effect of a mutation on the interaction” value is listed as “with no effect”. As to L851K, the “effect of a mutation on the interaction” value is on record as “with no effect”. Take L851A: the “effect of a mutation on the interaction” value was “with no effect”. Under L863E stands “with no effect”; under L863A, “with no effect”. On to L863K, for which the “effect of a mutation on the interaction” value is on record as “with no effect”. For C843E, the “effect of a mutation on the interaction” value was “with no effect”. Under C843A stands “with no effect”; under C843K, “with no effect”.

Turning to I846K, the “effect of a mutation on the interaction” value is on record as “with no effect”. Under I846A stands “with no effect”. Next, I846E: “with no effect”; V838K: “disrupting interaction strength”. Next, V838E: “with no effect”.

For V838A, the “effect of a mutation on the interaction” value is reported as “with no effect”. Turning to E853K, the “effect of a mutation on the interaction” value is given as “with no effect”. Regarding E853A, the “effect of a mutation on the interaction” value was “with no effect”.

For T845K, the “effect of a mutation on the interaction” value is on record as “with no effect”.

For T845E, the “effect of a mutation on the interaction” value is “with no effect”. Consider T845A, for which the “effect of a mutation on the interaction” value is “with no effect”. As for M837V, the “effect of a mutation on the interaction” value is “disrupting interaction strength”. For the variant M837K, the “effect of a mutation on the interaction” value is reported as “with no effect”. Under M837A stands “with no effect”.

Take M837S: the “effect of a mutation on the interaction” value is “disrupting interaction strength”. Under M837E stands “with no effect”. For S860E, the “effect of a mutation on the interaction” value is recorded as “with no effect”. Next, S860K: “with no effect”. Consider S860A, for which the “effect of a mutation on the interaction” value is recorded as “with no effect”. Under D850K stands “with no effect”; under D850A, “with no effect”; under D850E, “with no effect”. Regarding P847A, the “effect of a mutation on the interaction” value is reported as “with no effect”. Under P847K stands “with no effect”; under P847E, “with no effect”. Consider G842E, for which the “effect of a mutation on the interaction” value was “with no effect”. In the case of G842K, the “effect of a mutation on the interaction” value is “with no effect”.

Turning to G842A, the “effect of a mutation on the interaction” value is on record as “with no effect”. As for E848K, the “effect of a mutation on the interaction” value is given as “with no effect”. Next, E848A: “with no effect”. With S855K, the “effect of a mutation on the interaction” value was “with no effect”. Under S855A stands “with no effect”. In the case of S855E, the “effect of a mutation on the interaction” value is “with no effect”. Under M839K stands “with no effect”.

With M839E, the “effect of a mutation on the interaction” value was “with no effect”. Next, M839A: “with no effect”. Next, E857K: “with no effect”; E857A: “with no effect”; A833E: “with no effect”. Under A833K stands “with no effect”.

On to A833S, for which the “effect of a mutation on the interaction” value is “disrupting interaction strength”. Next, P840E: “with no effect”; P840K: “disrupting interaction strength”.

Regarding P840A, the “effect of a mutation on the interaction” value is on record as “with no effect”.

On to T861K, for which the “effect of a mutation on the interaction” value is recorded as “with no effect”. Next, T861A: “with no effect”; T861E: “with no effect”. Under E852K stands “with no effect”. Consider E852A, for which the “effect of a mutation on the interaction” value is listed as “with no effect”.

In the case of G841E, the “effect of a mutation on the interaction” value is recorded as “disrupting interaction strength”.

Consider G841K, for which the “effect of a mutation on the interaction” value is “with no effect”. On to G841A, for which the “effect of a mutation on the interaction” value is “with no effect”.

Regarding Q858K, the “effect of a mutation on the interaction” value is “with no effect”. For the variant Q858A, the “effect of a mutation on the interaction” value is “with no effect”. Next, Q858E: “with no effect”; P834A: “with no effect”; P834E: “with no effect”. On to P834K, for which the “effect of a mutation on the interaction” value was “with no effect”. In the case of T836K, the “effect of a mutation on the interaction” value was “with no effect”. Under T836A stands “with no effect”. Next, T836E: “with no effect”.
